# Measured values as given in PMC6399291.
# Columns and labels:
# CDK4 [1] = biological target: CDK4 (UniProt P11802); test: reciprocal co-IP, anti-GFP or anti-CDK4; settings: reference: wild type; sites S351,S377
# 14-3-3β = 14-3-3β (UniProt P31946); test: GFP-14-3-3β IP, anti-myc blot; settings: reference: wild type; sites S351,S377
# CDK4 [2] = biological target: CDK4 (UniProt P11802); test: glutathione-bead pull-down from co-transfected cells, anti-Flag blot; settings: sites S351,S377
# Chain of UniProt P11802 (P11802 whole entry, looked up): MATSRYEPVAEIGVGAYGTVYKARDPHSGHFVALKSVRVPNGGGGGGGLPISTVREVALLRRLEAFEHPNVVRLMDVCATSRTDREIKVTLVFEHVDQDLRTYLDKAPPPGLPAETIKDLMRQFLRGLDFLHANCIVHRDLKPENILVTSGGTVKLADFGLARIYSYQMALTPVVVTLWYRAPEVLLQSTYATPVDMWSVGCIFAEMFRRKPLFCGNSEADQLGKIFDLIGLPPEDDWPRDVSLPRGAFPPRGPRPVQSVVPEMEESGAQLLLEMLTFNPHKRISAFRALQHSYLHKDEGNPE
# Chain of UniProt P31946 (P31946 whole entry, looked up): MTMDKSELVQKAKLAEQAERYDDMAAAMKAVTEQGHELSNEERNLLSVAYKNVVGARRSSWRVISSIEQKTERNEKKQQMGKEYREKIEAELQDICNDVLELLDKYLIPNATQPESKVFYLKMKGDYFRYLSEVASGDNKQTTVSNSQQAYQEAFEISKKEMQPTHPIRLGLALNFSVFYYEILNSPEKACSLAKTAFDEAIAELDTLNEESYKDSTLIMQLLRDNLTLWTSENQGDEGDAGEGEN
substance,measurement,setting,value
PIKE-A (from UniProt Q99490-2) SA,binding against the reference,CDK4 [1],weaker
PIKE-A (from UniProt Q99490-2) S351/377A (SA),binding against the reference,14-3-3β,weaker
PIKE-A (from UniProt Q99490-2) SA + myc-AMPKα T172D,binding against the reference,CDK4 [2]; reference: wild type + myc-AMPKα T172D,weaker
PIKE-A (from UniProt Q99490-2) SA + myc-AMPKα T172A,binding against the reference,CDK4 [2]; reference: wild type + myc-AMPKα T172A,weaker
